Reference: publication PMC4882005, “Functional Cooperativity between ABCG4 and ABCG1 Isoforms” (PLoS ONE, 2016)

Biological target: GFP-ABCG4 (UniProt Q9H172-1 1-646)
Assay: co-IP; HEK293 co-transfected with the GFP-tagged and the untagged protein (untagged in excess), lysed 24 h after transfection in 50 mM Tris pH 7.4, 150 mM NaCl, 0.5% NP-40; precipitated with anti-GFP on protein G-sepharose, 2 h at 4°C; Western blot of the precipitate
Settings: partners not purified

GFP-ABCG4, sequence (Q9H172 whole entry): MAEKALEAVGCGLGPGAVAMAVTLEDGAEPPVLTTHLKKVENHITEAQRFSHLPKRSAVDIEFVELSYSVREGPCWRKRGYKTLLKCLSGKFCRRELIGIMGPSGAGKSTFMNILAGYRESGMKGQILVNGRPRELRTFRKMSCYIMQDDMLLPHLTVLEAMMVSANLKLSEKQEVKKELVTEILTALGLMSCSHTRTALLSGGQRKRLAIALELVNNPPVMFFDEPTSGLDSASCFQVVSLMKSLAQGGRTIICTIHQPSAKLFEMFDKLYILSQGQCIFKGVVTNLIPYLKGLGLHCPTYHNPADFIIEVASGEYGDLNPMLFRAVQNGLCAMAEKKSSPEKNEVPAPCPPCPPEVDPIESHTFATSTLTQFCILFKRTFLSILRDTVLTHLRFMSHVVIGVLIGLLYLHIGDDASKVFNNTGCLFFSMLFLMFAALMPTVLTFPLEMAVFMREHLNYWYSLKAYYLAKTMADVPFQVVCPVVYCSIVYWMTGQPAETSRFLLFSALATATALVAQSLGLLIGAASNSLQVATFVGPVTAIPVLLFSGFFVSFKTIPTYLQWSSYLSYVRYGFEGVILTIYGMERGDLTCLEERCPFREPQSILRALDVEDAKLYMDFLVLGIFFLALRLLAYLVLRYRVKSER

- stoichiometry N: ~1
B1: ABCG4 (wild type, untagged) (natural protein)
chain: not shown
notes: the whole cDNA was probably expressed; also called wt ABCG4; source: HEK293, transfected (Fugene HD), in lysate
